Key:
[1] = tested on: thrombus or embolus in cats with ATE; settings: cited from earlier work
[2] = tested on: thrombus or embolus in cats; settings: cited from earlier work
[3] = tested on: blood clots; assay: thrombolytic activity of the single agents, inventor's private research study; type: in vivo; settings: single agent
Excerpt: However, both agents can be dissolved in stomach acids, rendering certain dosage forms nearly useless as thrombolytic agents. This may explain why the potency of previous oral thrombolytics is decreased in comparison to injected thrombolytic agents. Enteric coatings reduce the active ingredients' rate of digestion in stomach acids, leading to enhanced efficacy of the active ingredient(s).

[4] = tested on: fibrinolytic activity in the plasma; assay: oral administration of nattokinase: fibrinolytic activity in the plasma; type: in vivo
Excerpt: There are no known studies that examine the efficacy of nattokinase as a thrombolytic agent in cats.

[5] = purified form; cited from earlier work
[6] = tested on: artificially induced thrombosis; settings: dogs, capsules orally; cited from earlier work
[7] = in vivo
Description: To ensure the efficacy of these two thrombolytic agents, an enteric coating is appropriate for some orally administered embodiments. The enteric coating allows the nattokinase and rutin bioflavonoid to travel through the acidic environment of the stomach without being dissolved. Nattokinase and rutin can then be absorbed into the bloodstream or circulation via the small intestine. Once absorbed, nattokinase remains active in the bloodstream for approximately 12 hours. In one embodiment, the enteric coating is composed of methacrylic acid copolymer and triethyl citrate. Additional ingredients may include, for example, arabinoglactan, microcrystalline cellulose, maltodextrin, stearic acid, croscarmellose sodium, silicon dioxide. During this clinical trial, participants were not on any other thrombolytic or fibrinolytic (blood thinning) agents.

For “streptokinase: veterinary drug with the potential to dissolve a thrombus or embolus”, the “cats with pulses restored” value ([1]; fraction of 46 cats) is given as “about half” and the “cats with motor function returned to their limbs” value ([1]; within 24 hours) is given as 30%.

In the case of “tPA: tissue-plasminogen activator, veterinary drug with the potential to dissolve a thrombus or embolus”, the “fatal complications due to metabolic acidosis and hyperkalemia” value ([2]; cats with ATE) is listed as 70% and the “cats with perfusion restored to their limbs” value ([2]; fraction of cats given the drug) is listed as “about two-thirds”.

B1: nattokinase: naturally occurring proteolytic enzyme derived from natto, soybeans fermented with Bacillus subtilis natto (protein, UniProt P35835 107-381, looked up)
Subtilisin NAT: AQSVPYGISQIKAPALHSQGYTGSNVKVAVIDSGIDSSHPDLNVRGGASFVPSETNPYQDGSSHGTHVAGTIAALNNSIGVLGVAPSASLYAVKVLDSTGSGQYSWIINGIEWAISNNMDVINMSLGGPTGSTALKTVVDKAVSSGIVVAAAAGNEGSSGSTSTVGYPAKYPSTIAVGAVNSSNQRASFSSVGSELDVMAPGVSIQSTLPGGTYGAYNGTSMATPHVAGAAALILSKHPTWTNAQVRDRLESTATYLGNSFYYGKGLINVQAAAQ
In the case of B1, the thrombolytic activity [3] is given as “demonstrated thrombolytic activity”, the “fibrinolytic activity in the plasma and production of tissue plasminogen activator” value [4] is given as “mild and frequent enhancement” and the “optimum pH of enzyme” value [5] is given as 7. The “optimum temperature of enzyme” value [5] was 37 °C, the “lysis of the thrombi by angiography” value [6] was “lysis of the thrombi was observed” and the “time active in the bloodstream” value [7] was “approximately 12 hours”.

— patent publication US20200254071A1, “COMPOSITIONS AND METHODS FOR THROMBOEMBOLISM DISSOLUTION” (priority 2016, published 2020)
